B1: HLA-DR-specific monoclonal antibody L243 (antibody, from another filing, V domains shown)
VH: QIQLVQSGPELKKPGETVKISCKASGFTFTNYGMNWVKQAPGKGLKWMGWINTYTREPTYADDFKGRFAFSLETSASTAYLQINNLKNEDTAKYFCARDITAVVPTGFDYWGQGTTLTVSS
VL: DIQMTQSPASLSVSVGETVTITCRASENIYSNLAWYRQKQGKSPQLLVFAASNLADGVPSRFSGSGSGTQYSLKINSLQSEDFGDYYCQHFWTTPWAFGGGTNLEIKR
B2: murine/human chimeric DN1924 HLA-DR-specific monoclonal antibody (antibody, human IgG2, kappa)
heavy: EVKLLESGGGLVQPGGSLKLSCAASGFDFSRYWMSWVRQAPGKGLEWIGEINPDSSTINYTPSLKDKFIISRDNAKNTLYLQMSKVRSEDTALYYCARQPYYYGSSYWYFDVWGAGTTVTVSSAASTKGPSVFPLAPCSRSTSESTAALGCLVKDYFPEPVTVSWNSGALTSGVHTFPAVLQSSGLYSLSSVVTVTSSNFGTQTYTCNVDHKPSNTKVDKTVERKCCVECPPCPAPPAAAPSVFLFPPKPKDTLMISRTPEVTCVVVDVSHEDPEVQFNWYVDGMEVHNAKTKPREEQFNSTFRVVSVLTVVHQDWLNGKEYKCKVSNKGLPAPIEKTISKTKGQPREPQVYTLPPSREEMTKNQVSLTCLVKGFYPSDIAVEWESNGQPENNYKTTPPMLDSDGSFFLYSKLTVDKSRWQQGNVFSCSVMHEALHNHYTQKSLSLSPGK
light: ETTVTQSPASLSMAIGEKVTIRCITSTDIDDDMNWYQQKPGEPPKLLISEGNTLRPGVPSRFSSSGYGTDFVFTIENMLSEDVADYYLQSDNLPYTFGGGTKLEIKTVAAPSVFIFPPSDEQLKSGTASVVCLLNNFYPREAKVQWKVDNALQSGNSQESVTEQDSKDSTYSLSSTLTLSKADYEKHKVYACEVTHQGLSSPVTKSFNRGEC

Target: human HLA-DR on cells (DRβ1 allele not stated) (human)
Experiment: cell-based or functional assay

Binder | suppression of SEB-triggered T cell proliferation ([3H]thymidine) [%] | % Annexin V Propidium Iodide Positive, antibody at 5 µg/ml, with Z-VAD-fmk [%] | % Annexin V Propidium Iodide Positive, antibody at 5 µg/ml, without Z-VAD-fmk [%]
B1 | 70 |  | 
B2 |  | 52.7 | 57.4

Source: patent publication US20050208048A1
